Source: the supplement of paper PMC9112550, “Optimization of the antimicrobial peptide Bac7 by deep mutational scanning” (BMC Biology, 2022)

Test system: Escherichia coli TOP10
Experiment: shrunken log2 fold change of peptide-encoding DNA abundance (4.5 h post-induction vs induction); higher = less antimicrobial activity (less host growth inhibition)
Conditions: time post-induction: 4.5 h; library: site-saturation at positions 5, 18, 19, 20
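Note: peptides expressed intracellularly from a pBAD plasmid library in pooled LB shake-flask culture, induced with 0.3% L-arabinose, DNA abundance read by NGS, three biological replicates, DESeq2 with apeglm shrinkage.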

Sequence	shrunken log2 fold change
RRIRIRPPRLPRPRPRPMRRPRP	0.0307
RRIRFRPPRLPRPRPRPSGQPRP	-0.204
RRIRNRPPRLPRPRPRPAYEPRP	-0.0122
RRIRPRPPRLPRPRPRPNVLPRP	-0.312
RRIRYRPPRLPRPRPRPNCAPRP	-0.214
RRIRTRPPRLPRPRPRPLRGPRP	0.897
RRIRKRPPRLPRPRPRPIERPRP	0.11
RRIRERPPRLPRPRPRPDRNPRP	-0.25
RRIRTRPPRLPRPRPRPFGIPRP	-0.338
RRIRPRPPRLPRPRPRPAPTPRP	0.704
RRIRLRPPRLPRPRPRPGRHPRP	0.0767
RRIRMRPPRLPRPRPRPILFPRP	-0.385
RRIRSRPPRLPRPRPRPYACPRP	-0.0148
RRIRPRPPRLPRPRPRPCYRPRP	-0.154
RRIRERPPRLPRPRPRPTFLPRP	-0.724
RRIRTRPPRLPRPRPRPWMHPRP	0.032
RRIRVRPPRLPRPRPRPWTMPRP	-0.134
RRIRQRPPRLPRPRPRPECFPRP	0.398
RRIRERPPRLPRPRPRPKDQPRP	0.188
RRIRNRPPRLPRPRPRPRMSPRP	-0.238
RRIRCRPPRLPRPRPRPHRMPRP	-0.401
RRIRLRPPRLPRPRPRPKVKPRP	-0.0219
RRIRARPPRLPRPRPRPDFCPRP	0.168
RRIRTRPPRLPRPRPRPPECPRP	0.0838
RRIRDRPPRLPRPRPRPIDYPRP	-0.0396

Sequence	shrunken log2 fold change
RRIRGRPPRLPRPRPRPIFSPRP	0.312
RRIRFRPPRLPRPRPRPLDHPRP	-0.359
RRIRLRPPRLPRPRPRPFRCPRP	-0.181
RRIRGRPPRLPRPRPRPHSHPRP	0.303
RRIRFRPPRLPRPRPRPRACPRP	0.165
RRIRCRPPRLPRPRPRPLFMPRP	-0.368
RRIRQRPPRLPRPRPRPPVRPRP	0.739
RRIRSRPPRLPRPRPRPYIMPRP	-0.845
RRIRIRPPRLPRPRPRPAFEPRP	-0.117
RRIRVRPPRLPRPRPRPDQEPRP	-0.00136
RRIRPRPPRLPRPRPRPHGQPRP	0.186
RRIRIRPPRLPRPRPRPCFSPRP	-0.198
RRIRSRPPRLPRPRPRPVLLPRP	-0.315
RRIRHRPPRLPRPRPRPKYYPRP	0.046
RRIRWRPPRLPRPRPRPIWWPRP	0.314
RRIRNRPPRLPRPRPRPGDSPRP	-0.0564
RRIRERPPRLPRPRPRPDNTPRP	-0.489
RRIRERPPRLPRPRPRPCVLPRP	0.0248
RRIRERPPRLPRPRPRPSCLPRP	-0.484
RRIRGRPPRLPRPRPRPNVWPRP	0.728
RRIRKRPPRLPRPRPRPDVRPRP	0.0826
RRIRTRPPRLPRPRPRPSMQPRP	-0.244
RRIRRRPPRLPRPRPRPHSQPRP	0.0866
RRIRARPPRLPRPRPRPWQNPRP	0.05
RRIRGRPPRLPRPRPRPRPVPRP	0.886

Sequence	shrunken log2 fold change
RRIRCRPPRLPRPRPRPMEVPRP	0.015
RRIRSRPPRLPRPRPRPVWMPRP	0.396
RRIRQRPPRLPRPRPRPRQYPRP	-0.163
RRIRIRPPRLPRPRPRPNHFPRP	-0.694
RRIRNRPPRLPRPRPRPQIRPRP	-0.0373
RRIRTRPPRLPRPRPRPIRHPRP	-0.438
RRIRYRPPRLPRPRPRPDKNPRP	-0.558
RRIRCRPPRLPRPRPRPTHEPRP	0.628
RRIRERPPRLPRPRPRPVNNPRP	-0.871
RRIRGRPPRLPRPRPRPHWAPRP	0.362
RRIRERPPRLPRPRPRPDVDPRP	0.0225
RRIRTRPPRLPRPRPRPFWIPRP	-0.34
RRIRDRPPRLPRPRPRPGLDPRP	0.0981
RRIRWRPPRLPRPRPRPASSPRP	-0.0381
RRIRERPPRLPRPRPRPYIVPRP	0.00789
RRIRQRPPRLPRPRPRPQVHPRP	0.0124
RRIRLRPPRLPRPRPRPQMQPRP	0.017
RRIRFRPPRLPRPRPRPWRHPRP	0.0222
RRIRARPPRLPRPRPRPVWEPRP	0.228
RRIRYRPPRLPRPRPRPVYNPRP	-0.394
RRIRCRPPRLPRPRPRPMSFPRP	-0.29
RRIRGRPPRLPRPRPRPFPLPRP	0.227
RRIRNRPPRLPRPRPRPFISPRP	-0.0484
RRIRIRPPRLPRPRPRPLGAPRP	0.241
RRIRSRPPRLPRPRPRPTSCPRP	-0.0946

Sequence	shrunken log2 fold change
RRIRQRPPRLPRPRPRPVSPPRP	-0.0264
RRIRMRPPRLPRPRPRPNRWPRP	0.394
RRIRYRPPRLPRPRPRPTMMPRP	-1.19
RRIRCRPPRLPRPRPRPQLIPRP	0.229
RRIRPRPPRLPRPRPRPCWEPRP	-0.0268
RRIRHRPPRLPRPRPRPPIVPRP	-0.252
RRIRHRPPRLPRPRPRPVCPPRP	-0.0334
RRIRLRPPRLPRPRPRPFYEPRP	-0.426
RRIRSRPPRLPRPRPRPTVCPRP	0.0523
RRIRLRPPRLPRPRPRPSHWPRP	-0.0446
RRIRHRPPRLPRPRPRPTNVPRP	-0.558
RRIRFRPPRLPRPRPRPDFVPRP	-0.0292
RRIRIRPPRLPRPRPRPDINPRP	-0.0484
RRIRWRPPRLPRPRPRPGICPRP	0.146
RRIRWRPPRLPRPRPRPNCEPRP	0.0915
RRIRDRPPRLPRPRPRPWIEPRP	0.135
RRIRYRPPRLPRPRPRPLVCPRP	-0.325
RRIRSRPPRLPRPRPRPKKMPRP	-0.178
RRIRQRPPRLPRPRPRPCDKPRP	0.244
RRIRYRPPRLPRPRPRPVHLPRP	-0.328
RRIRARPPRLPRPRPRPNVMPRP	0.153
RRIRSRPPRLPRPRPRPKNPPRP	-0.11
RRIRYRPPRLPRPRPRPWQTPRP	-0.0202
RRIRARPPRLPRPRPRPEMVPRP	0.00546
RRIRCRPPRLPRPRPRPKTHPRP	-0.115

Sequence	shrunken log2 fold change
RRIRYRPPRLPRPRPRPQGAPRP	-0.238
RRIRTRPPRLPRPRPRPYKWPRP	-0.0875
RRIRWRPPRLPRPRPRPKVDPRP	0.0401
RRIRQRPPRLPRPRPRPNVRPRP	0.0221
RRIRARPPRLPRPRPRPTGQPRP	0.65
RRIRWRPPRLPRPRPRPPDNPRP	0.318
RRIRHRPPRLPRPRPRPQDTPRP	-0.374
RRIRHRPPRLPRPRPRPEWFPRP	-0.0468
RRIRCRPPRLPRPRPRPGKRPRP	0.244
RRIRHRPPRLPRPRPRPHKIPRP	-0.215
RRIRVRPPRLPRPRPRPSDGPRP	0.000198
RRIRERPPRLPRPRPRPDEWPRP	-0.215
RRIRLRPPRLPRPRPRPPCIPRP	-0.519
RRIRHRPPRLPRPRPRPPFRPRP	0.141
RRIRGRPPRLPRPRPRPGMYPRP	0.191
RRIRDRPPRLPRPRPRPLNRPRP	-0.0679
RRIRIRPPRLPRPRPRPKTVPRP	0.0407
RRIRNRPPRLPRPRPRPCKQPRP	-0.0218
RRIRKRPPRLPRPRPRPDLHPRP	-0.0392
RRIRIRPPRLPRPRPRPAKCPRP	-0.126
RRIRPRPPRLPRPRPRPLIMPRP	-0.131
RRIRLRPPRLPRPRPRPFSCPRP	0.0222
RRIRFRPPRLPRPRPRPLAFPRP	-0.134
RRIRNRPPRLPRPRPRPYMKPRP	-0.03
RRIRDRPPRLPRPRPRPPNFPRP	0.0198

Sequence	shrunken log2 fold change
RRIRHRPPRLPRPRPRPQPEPRP	-0.0374
RRIRMRPPRLPRPRPRPGREPRP	1.02
RRIRCRPPRLPRPRPRPCHDPRP	-0.69
RRIRWRPPRLPRPRPRPTEPPRP	-0.0787
RRIRERPPRLPRPRPRPNANPRP	0.343
RRIRHRPPRLPRPRPRPPDLPRP	0.0765
RRIRDRPPRLPRPRPRPSQRPRP	-0.0409
RRIRMRPPRLPRPRPRPNPNPRP	0.394
RRIRDRPPRLPRPRPRPHWLPRP	0.149
RRIRKRPPRLPRPRPRPQQCPRP	-0.371
RRIRKRPPRLPRPRPRPDKHPRP	0.0337
RRIRARPPRLPRPRPRPEVRPRP	0.623
RRIRIRPPRLPRPRPRPPSLPRP	0.18
RRIRTRPPRLPRPRPRPMCGPRP	-0.171
RRIRIRPPRLPRPRPRPRGQPRP	0.413
RRIRQRPPRLPRPRPRPHYGPRP	0.0133
RRIRKRPPRLPRPRPRPVRWPRP	0.809
RRIRSRPPRLPRPRPRPINEPRP	-0.249
RRIRVRPPRLPRPRPRPFMHPRP	-0.156
RRIRMRPPRLPRPRPRPPKTPRP	0.891
RRIRRRPPRLPRPRPRPAMPPRP	0.396
RRIRRRPPRLPRPRPRPRNWPRP	0.319
RRIRQRPPRLPRPRPRPGRRPRP	0.388
RRIRNRPPRLPRPRPRPDFNPRP	-0.186
RRIRGRPPRLPRPRPRPDGFPRP	0.171
